According to patent US20260001928A1 (CORTERIA PHARMACEUTICALS, priority 2022, published 2026):
*1 amine or outer side, *2 acyl side, *3 side chain or, on linkers, in order; H or OH if unused. Where no end group is shown, it is not given here. Side-chain parts run from the residue outwards. [ ]: non-standard residue; d: D form. The star is where a group is joined. C18 diacid = O=C(O)CCCCCCCCCCCCCCCCC(=O)*; γGlu = O=C(O)[C@H](CCC(=O)[*:2])N[*:1]; NMeI = CC[C@H](C)[C@H](NC)C(=O)O; Api = NC1(C(=O)O)CCNCC1; Pentanoyl = CCCCC(=O)*; Aib = CC(C)(N)C(=O)O

T1: CRF1R receptor (UniProt P34998 24-415, limits assumed)
T1 sequence (looked up): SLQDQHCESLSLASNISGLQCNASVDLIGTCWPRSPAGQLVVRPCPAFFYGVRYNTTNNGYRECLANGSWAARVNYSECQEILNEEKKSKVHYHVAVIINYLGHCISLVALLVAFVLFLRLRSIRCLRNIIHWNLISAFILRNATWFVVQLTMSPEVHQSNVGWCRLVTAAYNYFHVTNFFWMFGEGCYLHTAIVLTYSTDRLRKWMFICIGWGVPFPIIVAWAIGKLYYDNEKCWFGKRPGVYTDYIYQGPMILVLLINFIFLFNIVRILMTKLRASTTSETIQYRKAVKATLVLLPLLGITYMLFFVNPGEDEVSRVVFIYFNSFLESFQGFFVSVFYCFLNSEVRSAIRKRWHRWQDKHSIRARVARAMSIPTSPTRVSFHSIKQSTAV

B1: SEQ ID NO 193 (peptide)
peptide: Pentanoyl-VLSLD[dV]PIKLK([γGlu-C18 diacid])KILLEQEKQKKQREQAETN[Aib]QILAQV-NH2
SMILES: CCCCC(=O)N[C@H](C(=O)N[C@@H](CC(C)C)C(=O)N[C@@H](CO)C(=O)N[C@@H](CC(C)C)C(=O)N[C@@H](CC(=O)O)C(=O)N[C@@H](C(=O)N1CCC[C@H]1C(=O)N[C@H](C(=O)N[C@@H](CCCCN)C(=O)N[C@@H](CC(C)C)C(=O)N[C@@H](CCCCNC(=O)CC[C@H](NC(=O)CCCCCCCCCCCCCCCCC(=O)O)C(=O)O)C(=O)N[C@@H](CCCCN)C(=O)N[C@H](C(=O)N[C@@H](CC(C)C)C(=O)N[C@@H](CC(C)C)C(=O)N[C@@H](CCC(=O)O)C(=O)N[C@@H](CCC(N)=O)C(=O)N[C@@H](CCC(=O)O)C(=O)N[C@@H](CCCCN)C(=O)N[C@@H](CCC(N)=O)C(=O)N[C@@H](CCCCN)C(=O)N[C@@H](CCCCN)C(=O)N[C@@H](CCC(N)=O)C(=O)N[C@@H](CCCNC(=N)N)C(=O)N[C@@H](CCC(=O)O)C(=O)N[C@@H](CCC(N)=O)C(=O)N[C@@H](C)C(=O)N[C@@H](CCC(=O)O)C(=O)N[C@H](C(=O)N[C@@H](CC(N)=O)C(=O)NC(C)(C)C(=O)N[C@@H](CCC(N)=O)C(=O)N[C@H](C(=O)N[C@@H](CC(C)C)C(=O)N[C@@H](C)C(=O)N[C@@H](CCC(N)=O)C(=O)N[C@H](C(N)=O)C(C)C)[C@@H](C)CC)[C@@H](C)O)[C@@H](C)CC)[C@@H](C)CC)C(C)C)C(C)C
B2: SEQ ID NO 192 (peptide)
peptide: [NMeI]VLSLD[dV]PIGLK([γGlu-C18 diacid])KILLEQEKQKKQREQAETN[Aib]QILAQV-NH2
modifications: N-terminus assumed
SMILES: CC[C@H](C)[C@H](NC)C(=O)N[C@H](C(=O)N[C@@H](CC(C)C)C(=O)N[C@@H](CO)C(=O)N[C@@H](CC(C)C)C(=O)N[C@@H](CC(=O)O)C(=O)N[C@@H](C(=O)N1CCC[C@H]1C(=O)N[C@H](C(=O)NCC(=O)N[C@@H](CC(C)C)C(=O)N[C@@H](CCCCNC(=O)CC[C@H](NC(=O)CCCCCCCCCCCCCCCCC(=O)O)C(=O)O)C(=O)N[C@@H](CCCCN)C(=O)N[C@H](C(=O)N[C@@H](CC(C)C)C(=O)N[C@@H](CC(C)C)C(=O)N[C@@H](CCC(=O)O)C(=O)N[C@@H](CCC(N)=O)C(=O)N[C@@H](CCC(=O)O)C(=O)N[C@@H](CCCCN)C(=O)N[C@@H](CCC(N)=O)C(=O)N[C@@H](CCCCN)C(=O)N[C@@H](CCCCN)C(=O)N[C@@H](CCC(N)=O)C(=O)N[C@@H](CCCNC(=N)N)C(=O)N[C@@H](CCC(=O)O)C(=O)N[C@@H](CCC(N)=O)C(=O)N[C@@H](C)C(=O)N[C@@H](CCC(=O)O)C(=O)N[C@H](C(=O)N[C@@H](CC(N)=O)C(=O)NC(C)(C)C(=O)N[C@@H](CCC(N)=O)C(=O)N[C@H](C(=O)N[C@@H](CC(C)C)C(=O)N[C@@H](C)C(=O)N[C@@H](CCC(N)=O)C(=O)N[C@H](C(N)=O)C(C)C)[C@@H](C)CC)[C@@H](C)O)[C@@H](C)CC)[C@@H](C)CC)C(C)C)C(C)C
B3: SEQ ID NO 189 (peptide)
peptide: Ac-IVLSLD[dV]PIKLK([γGlu-C18 diacid])KILLEQEKQKAQREQAETN[Aib]QILAQV-NH2
SMILES: CC[C@H](C)[C@H](NC(C)=O)C(=O)N[C@H](C(=O)N[C@@H](CC(C)C)C(=O)N[C@@H](CO)C(=O)N[C@@H](CC(C)C)C(=O)N[C@@H](CC(=O)O)C(=O)N[C@@H](C(=O)N1CCC[C@H]1C(=O)N[C@H](C(=O)N[C@@H](CCCCN)C(=O)N[C@@H](CC(C)C)C(=O)N[C@@H](CCCCNC(=O)CC[C@H](NC(=O)CCCCCCCCCCCCCCCCC(=O)O)C(=O)O)C(=O)N[C@@H](CCCCN)C(=O)N[C@H](C(=O)N[C@@H](CC(C)C)C(=O)N[C@@H](CC(C)C)C(=O)N[C@@H](CCC(=O)O)C(=O)N[C@@H](CCC(N)=O)C(=O)N[C@@H](CCC(=O)O)C(=O)N[C@@H](CCCCN)C(=O)N[C@@H](CCC(N)=O)C(=O)N[C@@H](CCCCN)C(=O)N[C@@H](C)C(=O)N[C@@H](CCC(N)=O)C(=O)N[C@@H](CCCNC(=N)N)C(=O)N[C@@H](CCC(=O)O)C(=O)N[C@@H](CCC(N)=O)C(=O)N[C@@H](C)C(=O)N[C@@H](CCC(=O)O)C(=O)N[C@H](C(=O)N[C@@H](CC(N)=O)C(=O)NC(C)(C)C(=O)N[C@@H](CCC(N)=O)C(=O)N[C@H](C(=O)N[C@@H](CC(C)C)C(=O)N[C@@H](C)C(=O)N[C@@H](CCC(N)=O)C(=O)N[C@H](C(N)=O)C(C)C)[C@@H](C)CC)[C@@H](C)O)[C@@H](C)CC)[C@@H](C)CC)C(C)C)C(C)C
B4: SEQ ID NO 191 (peptide)
peptide: Ac-IVLSLD[dV]PIGLK([γGlu-C18 diacid])KILLEQEKQKKQREQAETN[Aib]QILAQV-NH2
SMILES: CC[C@H](C)[C@H](NC(C)=O)C(=O)N[C@H](C(=O)N[C@@H](CC(C)C)C(=O)N[C@@H](CO)C(=O)N[C@@H](CC(C)C)C(=O)N[C@@H](CC(=O)O)C(=O)N[C@@H](C(=O)N1CCC[C@H]1C(=O)N[C@H](C(=O)NCC(=O)N[C@@H](CC(C)C)C(=O)N[C@@H](CCCCNC(=O)CC[C@H](NC(=O)CCCCCCCCCCCCCCCCC(=O)O)C(=O)O)C(=O)N[C@@H](CCCCN)C(=O)N[C@H](C(=O)N[C@@H](CC(C)C)C(=O)N[C@@H](CC(C)C)C(=O)N[C@@H](CCC(=O)O)C(=O)N[C@@H](CCC(N)=O)C(=O)N[C@@H](CCC(=O)O)C(=O)N[C@@H](CCCCN)C(=O)N[C@@H](CCC(N)=O)C(=O)N[C@@H](CCCCN)C(=O)N[C@@H](CCCCN)C(=O)N[C@@H](CCC(N)=O)C(=O)N[C@@H](CCCNC(=N)N)C(=O)N[C@@H](CCC(=O)O)C(=O)N[C@@H](CCC(N)=O)C(=O)N[C@@H](C)C(=O)N[C@@H](CCC(=O)O)C(=O)N[C@H](C(=O)N[C@@H](CC(N)=O)C(=O)NC(C)(C)C(=O)N[C@@H](CCC(N)=O)C(=O)N[C@H](C(=O)N[C@@H](CC(C)C)C(=O)N[C@@H](C)C(=O)N[C@@H](CCC(N)=O)C(=O)N[C@H](C(N)=O)C(C)C)[C@@H](C)CC)[C@@H](C)O)[C@@H](C)CC)[C@@H](C)CC)C(C)C)C(C)C
B5: SEQ ID NO 188 (peptide)
peptide: Ac-IVLSLD[dV]PIKLK([γGlu-C18 diacid])KILLEQEKQK[Aib]QREQAETN[Api]QILAQV-NH2
SMILES: CC[C@H](C)[C@H](NC(C)=O)C(=O)N[C@H](C(=O)N[C@@H](CC(C)C)C(=O)N[C@@H](CO)C(=O)N[C@@H](CC(C)C)C(=O)N[C@@H](CC(=O)O)C(=O)N[C@@H](C(=O)N1CCC[C@H]1C(=O)N[C@H](C(=O)N[C@@H](CCCCN)C(=O)N[C@@H](CC(C)C)C(=O)N[C@@H](CCCCNC(=O)CC[C@H](NC(=O)CCCCCCCCCCCCCCCCC(=O)O)C(=O)O)C(=O)N[C@@H](CCCCN)C(=O)N[C@H](C(=O)N[C@@H](CC(C)C)C(=O)N[C@@H](CC(C)C)C(=O)N[C@@H](CCC(=O)O)C(=O)N[C@@H](CCC(N)=O)C(=O)N[C@@H](CCC(=O)O)C(=O)N[C@@H](CCCCN)C(=O)N[C@@H](CCC(N)=O)C(=O)N[C@@H](CCCCN)C(=O)NC(C)(C)C(=O)N[C@@H](CCC(N)=O)C(=O)N[C@@H](CCCNC(=N)N)C(=O)N[C@@H](CCC(=O)O)C(=O)N[C@@H](CCC(N)=O)C(=O)N[C@@H](C)C(=O)N[C@@H](CCC(=O)O)C(=O)N[C@H](C(=O)N[C@@H](CC(N)=O)C(=O)NC1(C(=O)N[C@@H](CCC(N)=O)C(=O)N[C@H](C(=O)N[C@@H](CC(C)C)C(=O)N[C@@H](C)C(=O)N[C@@H](CCC(N)=O)C(=O)N[C@H](C(N)=O)C(C)C)[C@@H](C)CC)CCNCC1)[C@@H](C)O)[C@@H](C)CC)[C@@H](C)CC)C(C)C)C(C)C
B6: SEQ ID NO 190 (peptide)
peptide: Ac-IVLSLD[dV]PIKLK([γGlu-C18 diacid])KILLEQEKQK[Aib]QREQAETN[Aib]QILAQV-NH2
SMILES: CC[C@H](C)[C@H](NC(C)=O)C(=O)N[C@H](C(=O)N[C@@H](CC(C)C)C(=O)N[C@@H](CO)C(=O)N[C@@H](CC(C)C)C(=O)N[C@@H](CC(=O)O)C(=O)N[C@@H](C(=O)N1CCC[C@H]1C(=O)N[C@H](C(=O)N[C@@H](CCCCN)C(=O)N[C@@H](CC(C)C)C(=O)N[C@@H](CCCCNC(=O)CC[C@H](NC(=O)CCCCCCCCCCCCCCCCC(=O)O)C(=O)O)C(=O)N[C@@H](CCCCN)C(=O)N[C@H](C(=O)N[C@@H](CC(C)C)C(=O)N[C@@H](CC(C)C)C(=O)N[C@@H](CCC(=O)O)C(=O)N[C@@H](CCC(N)=O)C(=O)N[C@@H](CCC(=O)O)C(=O)N[C@@H](CCCCN)C(=O)N[C@@H](CCC(N)=O)C(=O)N[C@@H](CCCCN)C(=O)NC(C)(C)C(=O)N[C@@H](CCC(N)=O)C(=O)N[C@@H](CCCNC(=N)N)C(=O)N[C@@H](CCC(=O)O)C(=O)N[C@@H](CCC(N)=O)C(=O)N[C@@H](C)C(=O)N[C@@H](CCC(=O)O)C(=O)N[C@H](C(=O)N[C@@H](CC(N)=O)C(=O)NC(C)(C)C(=O)N[C@@H](CCC(N)=O)C(=O)N[C@H](C(=O)N[C@@H](CC(C)C)C(=O)N[C@@H](C)C(=O)N[C@@H](CCC(N)=O)C(=O)N[C@H](C(N)=O)C(C)C)[C@@H](C)CC)[C@@H](C)O)[C@@H](C)CC)[C@@H](C)CC)C(C)C)C(C)C

Tests used:
CRF1R receptor = molecular target: T1, CRF1R receptor; test: cell-based or functional assay
[1] = molecular target: human corticotropin-releasing factor 2a (CRF2a receptor) (human), Q13324; test: cell-based or functional assay
Chain of human corticotropin-releasing factor 2a (CRF2a receptor) (human), Q13324 (Q13324 20-411): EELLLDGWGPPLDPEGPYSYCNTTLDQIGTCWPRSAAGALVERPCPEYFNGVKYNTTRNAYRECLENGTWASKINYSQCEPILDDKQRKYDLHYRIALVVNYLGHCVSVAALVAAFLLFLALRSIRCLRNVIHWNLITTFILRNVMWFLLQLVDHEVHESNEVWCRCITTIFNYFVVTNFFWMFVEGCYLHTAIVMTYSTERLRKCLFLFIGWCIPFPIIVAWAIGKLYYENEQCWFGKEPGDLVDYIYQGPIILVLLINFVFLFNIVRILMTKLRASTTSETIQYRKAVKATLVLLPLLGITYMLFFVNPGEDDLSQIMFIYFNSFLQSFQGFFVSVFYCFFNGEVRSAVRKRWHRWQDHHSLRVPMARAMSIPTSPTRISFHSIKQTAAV

Binder | Emax (% I) (CRF1R receptor) [%] | EC50 [nM] (cAMP) [1] | EC50 (CRF1R receptor) [nM]
B1 | 20 | 0.17 | –
B2 | 19 | 0.11 | –
B3 | 9 | 0.29 | –
B4 | 54 | 0.18 | 92.9
B5 | 32 | 0.28 | –
B6 | 9 | 0.3 | –
